The values below come from patent US20170298096A1 (CANIMGUIDE THERAPEUTICS, published 2017).

No end group written: not given here.

One assay addresses T1, His-tagged P3028 peptide (PGE73) (human).
T1 construct: also called His-tag-P3028; not shown: His-tag
T1 peptide: VFDEFKPLVEEPQNLIK
Put plainly: PEPSCAN ELISA; peptide on card, His-tagged P3028 in solution.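 Further: bound protein detected by peroxidase colour with ABTS substrate, imaged on the peptide card by CCD camera at 405 nm, rampo units being raw OD405 readings.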 Background: In an ELISA, binding on a coated surface is turned into a signal by an enzyme label.
With KKLDTFFVKLSLFDER (P28R variant on PEPSCAN card) [SEQ ID NO: 567], the “RAMPO Score” value is 159 rampo units.

Take KKLDTFFVKLSLFEER (P28R variant on PEPSCAN card) [SEQ ID NO: 576]: the “RAMPO Score” value is 110 rampo units.

For KKLDTFFVKDSLFTER (P28R variant on PEPSCAN card) [SEQ ID NO: 578], the “RAMPO Score” value stood at 102 rampo units.

In the case of KKLDTFFVKESLFTER (P28R variant on PEPSCAN card) [SEQ ID NO: 582], the “RAMPO Score” value came out at 81 rampo units.

For KKLDTFFVKLLLFTER (P28R variant on PEPSCAN card) [SEQ ID NO: 548], the “RAMPO Score” value worked out at 213 rampo units.

With KKLDTFFVKLSDFTER (P28R variant on PEPSCAN card) [SEQ ID NO: 580], the “RAMPO Score” value was found to be 89 rampo units.

With KKLDTFFVKLSEFTER (P28R variant on PEPSCAN card) [SEQ ID NO: 581], the “RAMPO Score” value turned out to be 82 rampo units.

The next assay deals with Artificial Cell Surface (ACS): biotinylated cell surface proteins from mononuclear cells coupled to streptavidin-sepharose. Put plainly: adsorption on ACS column, MALDI-TOF MS.
As for VFDEFKPLVEEPQNLIK [trypsin-generated albumin fragment SEQ ID NO: 196 …], the Percent Absorbed turned out to be 60%.

The molecule AVMDDFAAFVEK [trypsin-generated albumin fragment SEQ ID NO: 208 …] displayed a Percent Absorbed of 23%.

For QEPERNECFLQHK (not fully specified) [trypsin-generated albumin fragment SEQ ID NO: 211 …], the Percent Absorbed worked out at 18%.

Consider CCAAADPHECYAK [trypsin-generated albumin fragment SEQ ID NO: 204 …], for which the Percent Absorbed worked out at 32%.

As to LKECCEKPLLEK [trypsin-generated albumin fragment SEQ ID NO: 201 …], the Percent Absorbed was found to be 36%.

For the molecule AAFTECCQAADK [trypsin-generated albumin fragment SEQ ID NO: 205 …], the Percent Absorbed stood at 29%.

CCTESLVNR [trypsin-generated albumin fragment SEQ ID NO: 206 …] showed a Percent Absorbed of 26%.

As to VHTECCHGDLLECADDR [trypsin-generated albumin fragment SEQ ID NO: 212 …], the Percent Absorbed worked out at 13%.

KVPQVSTPTLVEVSR [trypsin-generated albumin fragment SEQ ID NO: 195 …] displayed a Percent Absorbed of 64%.

Turning to KYLYEIAR [trypsin-generated albumin fragment SEQ ID NO: 194 KYLYEIAR], the Percent Absorbed amounted to 71%.

In the case of RPCFSALEVDETYVPK [trypsin-generated albumin fragment SEQ ID NO: 198 …], the Percent Absorbed came out at 42%.

NECFLQHK [trypsin-generated albumin fragment SEQ ID NO: 209 NECFLQHK]: the Percent Absorbed is 22%.

As for VPQVSTPTLVEVSR [trypsin-generated albumin fragment SEQ ID NO: 197 …], the Percent Absorbed is 59%.

Consider FKDLGEENFK [trypsin-generated albumin fragment SEQ ID NO: 213 …], for which the Percent Absorbed turned out to be 8%.

Molecule YLYEIAR [trypsin-generated albumin fragment SEQ ID NO: 203 YLYEIAR] yielded a Percent Absorbed of 34%.

QEPERNECFLQHK (not fully specified) [trypsin-generated albumin fragment SEQ ID NO: 207 …] gave a Percent Absorbed of 25%.

In the case of LCTVATLR [trypsin-generated albumin fragment SEQ ID NO: 202 LCTVATLR], the Percent Absorbed turned out to be 35%.

SLHTLFGDK [trypsin-generated albumin fragment SEQ ID NO: 200 …] yielded a Percent Absorbed of 36%.

With FQNALLVR [trypsin-generated albumin fragment SEQ ID NO: 199 FQNALLVR], the Percent Absorbed was 41%.
